Test results: the Human Domainome abundance scans (Beltran et al. 2025)
± gives the uncertainty stated by the source.

B1: Segment polarity protein dishevelled homolog DVL-3, residues 2 to 81; numbered along this chain, Q92997 (parent)
chain: GETKIIYHLDGQETPYLVKLPLPAERVTLADFKGVLQRPSYKFFFKSMDDDFGVVKEEISDDNAKLPCFNGRVVSWLVSA

Variants of: B1
Assay: abundance fitness (aPCA) (normalised: wild type 0, dead -1); higher = more abundant; growth selection in yeast, the domain comes from the species named
Conditions: Homo sapiens

Row | Variant | abundance fitness
1 | GETKIIYHLDGQECPYLVKLPLPAERVTLADFKGVLQRPSYKFFFKSMDDDFGVVKEEISDDNAKLPCFNGRVVSWLVSA [T14C] | -0.112 ± 0.086
2 | GETKIIYHLDGQEQPYLVKLPLPAERVTLADFKGVLQRPSYKFFFKSMDDDFGVVKEEISDDNAKLPCFNGRVVSWLVSA [T14Q] | 0.114 ± 0.064
3 | GETKIIYHLDGQETPYLVKLPLPAERVTLADFKGVLQRPSYKFFFKRMDDDFGVVKEEISDDNAKLPCFNGRVVSWLVSA [S47R] | 0.34 ± 0.039
4 | GETKIIYHLDGQETPYLVKLPLPAERVTLADFKGVLQRPSYKFFFKSMDDDFGVVKEEISDDNAKLPCFNGRVVSILVSA [W76I] | -1.4 ± 0.5
5 | GETKIIYHLDGQENPYLVKLPLPAERVTLADFKGVLQRPSYKFFFKSMDDDFGVVKEEISDDNAKLPCFNGRVVSWLVSA [T14N] | -0.049 ± 0.071
6 | GETKIIYHLDGQETPYLVKLPLPAERVTLADFKGVLQRPSYKFFFKSMDDDFGVVKEESSDDNAKLPCFNGRVVSWLVSA [I59S] | -0.704 ± 0.087
7 | GETKIIYHLDGQETPYLVKLPLPAERVTLADFKGVLQRPSYKFFFCSMDDDFGVVKEEISDDNAKLPCFNGRVVSWLVSA [K46C] | -0.068 ± 0.11
8 | GETKIIYHLDGQETPYLVYLPLPAERVTLADFKGVLQRPSYKFFFKSMDDDFGVVKEEISDDNAKLPCFNGRVVSWLVSA [K19Y] | -0.154 ± 0.11
9 | GLTKIIYHLDGQETPYLVKLPLPAERVTLADFKGVLQRPSYKFFFKSMDDDFGVVKEEISDDNAKLPCFNGRVVSWLVSA [E2L] | -0.341 ± 0.07
10 | GETKIIYHLDGQETPYLVKLPLPAERVTLADFKGVLQRPSYKFFFKSMDDDFGVVKEEISDDNAKLRCFNGRVVSWLVSA [P67R] | -0.544 ± 0.074
11 | GETKIHYHLDGQETPYLVKLPLPAERVTLADFKGVLQRPSYKFFFKSMDDDFGVVKEEISDDNAKLPCFNGRVVSWLVSA [I6H] | -0.076 ± 0.11
12 | GETKIIYHLDGQETPYLVKWPLPAERVTLADFKGVLQRPSYKFFFKSMDDDFGVVKEEISDDNAKLPCFNGRVVSWLVSA [L20W] | -0.472 ± 0.069
13 | GETKIIYHLDGQETPYLVKLPLPAERVTLADFKGVLQRPSYKFFFKSMDDDFGVVKEEISDDNAKLPCFNGRVVDWLVSA [S75D] | -0.723 ± 0.11
14 | GETKIIYHLDGQETPYLVKLPLVAERVTLADFKGVLQRPSYKFFFKSMDDDFGVVKEEISDDNAKLPCFNGRVVSWLVSA [P23V] | -0.739 ± 0.1
15 | GETKIRYHLDGQETPYLVKLPLPAERVTLADFKGVLQRPSYKFFFKSMDDDFGVVKEEISDDNAKLPCFNGRVVSWLVSA [I6R] | -0.728 ± 0.069
16 | GETKIIYHLDGQETPYLVKLPSPAERVTLADFKGVLQRPSYKFFFKSMDDDFGVVKEEISDDNAKLPCFNGRVVSWLVSA [L22S] | -0.822 ± 0.1
17 | GETKIIYHLDGQESPYLVKLPLPAERVTLADFKGVLQRPSYKFFFKSMDDDFGVVKEEISDDNAKLPCFNGRVVSWLVSA [T14S] | -0.104 ± 0.059
18 | GETKIIYHLDVQETPYLVKLPLPAERVTLADFKGVLQRPSYKFFFKSMDDDFGVVKEEISDDNAKLPCFNGRVVSWLVSA [G11V] | -0.919 ± 0.096

Row | Variant | abundance fitness
19 | GETKIIYHLDGQETPYLVKLPLPAERVTLADFKGVLQRPSYKFFFKSMDDDFGVVKEEISDWNAKLPCFNGRVVSWLVSA [D62W] | -0.929 ± 0.16
20 | GETKIIYHLDGQETPYLVKLPLPAERVTLADFKGVLQRPSYKFFFKSMDDDFGVVKEEISDDNAKLSCFNGRVVSWLVSA [P67S] | -0.646 ± 0.094
21 | GETKIILHLDGQETPYLVKLPLPAERVTLADFKGVLQRPSYKFFFKSMDDDFGVVKEEISDDNAKLPCFNGRVVSWLVSA [Y7L] | -0.735 ± 0.083
22 | GETKIIYHLDGQETPYLVKLPLPAERVTLADFKGVLQRPSYKFFFKSMDDDFGVVKEEISDDNAPLPCFNGRVVSWLVSA [K65P] | -0.135 ± 0.066
23 | GETKIIYHLDGQETPYLVKLPLPAERVTLADFKGVLQRCSYKFFFKSMDDDFGVVKEEISDDNAKLPCFNGRVVSWLVSA [P39C] | -0.306 ± 0.11
24 | GETKIIYHLDGQETPYLVKLPLPAERNTLADFKGVLQRPSYKFFFKSMDDDFGVVKEEISDDNAKLPCFNGRVVSWLVSA [V27N] | -0.785 ± 0.24
25 | GETKIIYHLDGQETPYLVKLPLPAERVTLADFKGVLQRPSYKFFFKSMDDDFGDVKEEISDDNAKLPCFNGRVVSWLVSA [V54D] | 0.168 ± 0.08
26 | GETKIIYHLDGQETPYLVKLPLPAERVTLADFKGVLQRPSYKFFFKSMDDDFGVVKEVISDDNAKLPCFNGRVVSWLVSA [E58V] | -0.561 ± 0.082
27 | GETKIIYHLDGQETPYLVKLPLPAERVTLADFKGVLQRPSYKFFFKSMDDDFGVVKEEISDDNAKLPCFNGRRVSWLVSA [V73R] | -0.592 ± 0.12
28 | GETKIIYHLDGQETPYLVKLPLPAERVTLADFKGVLQRPSYKFFFKSMDDDFGVVKESISDDNAKLPCFNGRVVSWLVSA [E58S] | -0.62 ± 0.088
29 | GETKIIYHLDGQETPYLVKLPLPAERVTLADFKGVLQRPSYKFFFKSMDDDFGVCKEEISDDNAKLPCFNGRVVSWLVSA [V55C] | 0.198 ± 0.073
30 | METKIIYHLDGQETPYLVKLPLPAERVTLADFKGVLQRPSYKFFFKSMDDDFGVVKEEISDDNAKLPCFNGRVVSWLVSA [G1M] | -0.074 ± 0.14
31 | GETKIIYHLDGQETPYLVKLPLPAERVTLADFKGVLQRPSYKFFFKSMDDDFGVVKEEISDDNAKLYCFNGRVVSWLVSA [P67Y] | -0.602 ± 0.18
32 | GETKIIYHLDGQETPYLVKLPLPAERVTLADFKGVLQRPSYKFFFKSMDDDFGVVKEEISDDNAKLPCFNGRVVSWLVSF [A80F] | -0.098 ± 0.14
33 | GETKIIYHLDGQETPYLVKLPLPAERVTLADFKGVLQRPSYKFFFKSMDDPFGVVKEEISDDNAKLPCFNGRVVSWLVSA [D51P] | 0.057 ± 0.073
34 | GETKIIYHLDGQETPYLVKLPLPAERVTLADFKGVLQRPSYKFFEKSMDDDFGVVKEEISDDNAKLPCFNGRVVSWLVSA [F45E] | -0.379 ± 0.076
35 | GETKIIYHLDGQETPYLVKLPLPAERVTLRDFKGVLQRPSYKFFFKSMDDDFGVVKEEISDDNAKLPCFNGRVVSWLVSA [A30R] | 0.034 ± 0.041
